Assay results as given in patent US20240156935A1 (VIB VZW, published 2024).

T1: recombinant Q586B2 protein (Tb927.6.4140), produced in E. coli WK6
T1 chain: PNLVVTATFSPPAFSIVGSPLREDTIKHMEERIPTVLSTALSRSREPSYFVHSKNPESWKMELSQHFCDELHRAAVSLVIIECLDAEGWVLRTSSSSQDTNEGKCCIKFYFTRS

T2: native Q586B2 (Tb927.6.4140) of Trypanosoma brucei brucei parasites (Trypanosoma brucei brucei)
T2 construct: Native protein; also called native protein
T2 chain: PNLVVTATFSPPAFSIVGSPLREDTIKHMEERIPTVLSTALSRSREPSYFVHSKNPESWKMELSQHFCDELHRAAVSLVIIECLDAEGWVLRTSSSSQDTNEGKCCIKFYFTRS


How the values were obtained:
[1] = target: T1, recombinant Q586B2 protein …; experiment: ELISA
[2] = target: T2, native Q586B2 (Tb927.6.4140) of …; experiment: flow cytometry on purified T. brucei brucei parasites, HA-tagged Nb, Alexa-488 anti-HA IgG
Description: FIG. 4A) Representative flow cytometric profile of purified, fixed and permeabilized T. brucei brucei parasites plotted in an SSC-A versus FSC-A plot and subsequently gating on single cells (FSC-H versus FSC-A plot). 10⁶ parasites in presence or absence of 5 μg of HA-tagged Nb was used per condition.

Row | Binder | Kd [1] [nM] | binding result [2]
1 | Nb34 (VHH) VHH: QVQLQESGGGLVQPGGSLRLSCAASGFTFSNSPMNWVRQAPGKGLEWVSAINSGGGSTYYADSVKGRFTISRDNAKNTLYLQMNSLKPEDTAVYYCAKGGRTYYSGSYYSWGMDYWGKGTQVTVSS | 36.7 | 
2 | Nb41 (VHH, Llama nanobody purified by IMAC and SEC; It was HA-tagged in flow cytometry; also called anti-Q586B2 Nb) VHH: QVQLQESGGGLVQAGGSLRLSCAASGRTFSSYAMGWFRQAPGKEREFIALISWIGGSTAYADSVKGRFTISRDNAKNTLYLQMNSLKPEDTAVYYCATDRIGRHRGPGTQVTVSS | 14.5 | binds
3 | Nb58 (VHH, Llama nanobody purified by IMAC and SEC; It was HA-tagged in flow cytometry; also called anti-Q586B2 Nb) VHH: QVQLQESGGGLVQPGGSLRLSCAASGRSISSIYAMGWYRQAPGKQRELVARLTSGGSSNYADSVKGRFTITRDNAQNTVYLQMNSLKPEDTAVYYCNAEPSRWWLDDDYWGQGTQVTVSS | 36.7 | binds
4 | Nb53 (VHH) VHH: QVQLQESGGGSVQAGGSLRLSCSASGYTYSSHCTAWFRQAPGKEREALAAINSRSGTTYYADSVKGRFTISQDNTKNTAYLQMNSLKPEDTATYFCAALSFGCTGPLASLGQGTQVTVSS | 45.5 | 
5 | Nb39 (VHH) VHH: QVQLQESGGGLVQPGGSLRLSCTASGSIFSGYAMGWYRQAPGKQRELVAGITSGGSTIYAGSVKGRFTISRDNAKNTVYLQMNSLKPEDTAVYYCKNGTYYSARDYWGQGTQVTVSS | 49.9 | 
6 | Nb27 (VHH) VHH: QVQLQESGGGLVQPGGSLRLSCTTSRSILSIYAMGWYRQAPGKQRELVAVITSGGSTYYADSVKGRFTISRDNAKNTLYLQMNSLKPEDTALYYCARGGYGTSPQPSWGQGTQVTVSS | 52 | 
7 | Nb32 (VHH, Llama nanobody purified by IMAC and SEC; It was HA-tagged in flow cytometry; also called anti-Q586B2 Nb) VHH: QVQLQESGGGLVQPGGSLRLSCAASGFTFSAYAMSWVRQAPGKGLEWVSTIDSGGGSTYYADSVKGRFTISRDNAKKTLYLHMNSLKPEDTAVYYCAKRGYSDYARHVWGQGTQVTVSS | 46.6 | binds
8 | Nb36 (VHH) VHH: QVQLQESGGGLVQPGGSLRLSCAASGFAFSFYWMNWVRQAPGKGLEWVSAINSGGGSTYYADSVKGRFTISRDNAKNTLYLQMNSLKPEDTAVYYCAKGIVQRGEYYGMDYWGKGTQVTVSS | 11.3 | 
